Tests used:
Assay in all cases: SEC; Superose 6 10/300 in 10 mM Tris, 100 mM NaCl, pH 8.0, after StrepTactin affinity purification; peak of the trimeric ectodomain
[1] = target: recombinant gorilla GII FV Env ectodomain variant mut1 (K342A/R343A) (simian foamy virus, gorilla (genotype II))
[2] = target: recombinant gorilla GII FV Env ectodomain variant mut2 (R356A/R369A) (simian foamy virus, gorilla (genotype II))
[3] = target: recombinant gorilla GII FV Env ectodomain, wild type (simian foamy virus, gorilla (genotype II))

recombinant gorilla GII FV Env ectodomain variant mut1 (K342A/R343A) (domain or fragment)
stoichiometry N [1]: 3

recombinant gorilla GII FV Env ectodomain variant mut2 (R356A/R369A) (domain or fragment)
stoichiometry N [2]: 3

recombinant gorilla GII FV Env ectodomain, wild type (domain or fragment)
stoichiometry N [3]: 3

Reference: paper PMC9988990
